This passage reports stoichiometry N results from paper PMC3631186.

Usually stoichiometry N stands for the number of molecules, sites or subunits per partner or assembly.

For test [1], the target named is HIV-1 p24 capsid protein from the BMJ4 strain (recombinant, full-length) (HIV-1 strain BMJ4 (subtype C)). Kind of test: crystal structure.
The target is the same in test [2]. Kind of test: SEC; analytic gel filtration, G5000PWxl column in phosphate-buffered saline pH 7.4, 0.5 ml/min, Agilent1200 HPLC. A general note: In gel filtration, larger molecules generally elute earlier.
Test [3] has the same target. Kind of test: AUC; sedimentation velocity, 0.9 mg/ml in phosphate-buffered saline pH 7.4, 20°C, 45,000 rpm; c(s) scaled to c(M).
The target is the same in test [4]. Kind of test: non-reducing SDS-PAGE; recombinant p24 proteins; loading buffer with 0.1% SDS, no BME, sample not boiled; called native gel in the text.
Test [5] has as its target p24 of HIV-1 MJ4 virus (from the infectious clone) (HIV-1 strain BMJ4 (subtype C)). Description: non-reducing SDS-PAGE.
Test [6] addresses C-terminal domain (CTD) of BMJ4 p24 (HIV-1 strain BMJ4 (subtype C)). Kind of test: non-reducing SDS-PAGE; C-terminal domain of BMJ4 p24 in non-reducing condition.

Turning to “HIV-1 p24 capsid protein from the BMJ4 strain (recombinant, full-length) (natural protein)”, the stoichiometry N in test [1], in test [2], in test [3] and in test [4] was 2 in each case.

In turn, “p24 of HIV-1 MJ4 virus (from the infectious clone) (natural protein)” showed a stoichiometry N in test [5] of 2.

“C-terminal domain (CTD) of BMJ4 p24 (domain or fragment)” showed a stoichiometry N in test [6] of 2.
